Laboratory results published in patent publication US8975044B2, “Polynucleotides encoding for frizzled-binding agents and uses thereof” (OncoMed Pharmaceuticals, Inc., priority 2008, dated 2015).
Changes are numbered by the printed parent chain.

B1: 18R5: human anti-FZD antibody; VH SEQ ID NO:10 (as 18R8), VL SEQ ID NO:14; binds FZD1, 2, 5, 7, 8 (antibody, V domains shown)
VH: EVQLVESGGGLVQPGGSLRLSCAASGFTFSHYTLSWVRQAPGKGLEWVSVISGDGSYTYYADSVKGRFTISSDNSKNTLYLQMNSLRAEDTAVYYCARNFIKYVFANWGQGTLVTVSS
VL: DIELTQPPSVSVAPGQTARISCSGDNIGSFYVHWYQQKPGQAPVLVIYDKSNRPSGIPERFSGSNSGNTATLTISGTQAEDEADYYCQSYANTLSLVFGGGTKLTVLG
modifications: 18R5/18R8 heavy chain variable region (VH); 18R5 light chain variable region (VL)
B2: 18R8: human anti-FZD antibody from phage display; VH SEQ ID NO:10, VL SEQ ID NO:12; binds FZD1, 2, 5, 7, 8 (antibody, V domains shown)
VH: B1 VH
VL: DIELTQPPSVSVAPGQTARISCSGDKLGKKYASWYQQKPGQAPVLVIYEKDNRPSGIPERFSGSNSGNTATLTISGTQAEDEADYYCSSFAGNSLEVFGGGTKLTVLG
modifications: 18R5/18R8 heavy chain variable region (VH); 18R8 light chain variable region (VL)

Columns and labels:
PE13 breast tumors = experiment: PE13 breast tumor limiting dilution assay (LDA); assay type: in vivo, mice; conditions: antibody 20 mg/kg once per week; 50, 150 or 500 cells re-injected, 59 days; L-calc
Procedure: PE13 breast tumor limiting dilution assay (LDA) study with 18R5 mAb: Animals bearing PE13 breast tumors were treated with either control antibody (gray circles), 18R5 (open triangles), taxol (black circles), or the combination of taxol and 18R5 (open squares). Taxol was dosed at 15 mg/kg twice per week and the antibodies were dosed 20 mg/kg once per week. Tumors were harvested and the human tumor cells were purified by lin depletion. 50, 150, or 500 tumor cells were injected into a new cohort of mice (n=10 per cell dose). Tumor growth frequency was monitored after 59 days and used to calculate the CSC frequency (L-calc).

OMP-C28 tumors = experiment: Flow cytometry of ESA and CD44 on cells of treated OMP-C28 tumors; assay type: in vivo, NOD/SCID mice; conditions: tumors harvested day 48; control antibody 64%
Procedure: Control and treated tumors from the OMP-C28 xenograft study described above (Example 7) were harvested at the end of the study (day 48). The tumors were processed and dissociated into single cells. Tumor cells were then incubated with biotinylated mouse antibodies (α-mouse CD45-biotin 1:200 dilution and rat α-mouse H2 Kd-biotin 1:100 dilution, BioLegend, San Diego, Calif.) on ice for 30 min followed by addition of streptavidin-labeled magnetic beads (Invitrogen, Carlsbad, Calif.) to remove mouse cells with the aid of a magnet.
For analysis of cell surface markers, the single tumor cell suspension was stained with anti-ESA (Biomeda) and anti-CD44 (BD Biosciences) antibodies which were directly conjugated to fluorochromes. Dead cells were excluded by using the viability dye DAPI. Flow cytometry was performed using a FACS Aria (Becton Dickinson). Side scatter and forward scatter profiles were used to eliminate cell clumps.

PN4 pancreatic tumor = PN4 pancreatic tumor recurrence study; assay type: in vivo, Nod-Scid mice; conditions: gemcitabine 75 mg/kg once per week for 5 weeks, then antibody 10 mg/kg once per week
Procedure: PN4 pancreatic tumor recurrence study with 18R5 mAb: PN4 pancreatic tumor cells were injected into Nod-Scid mice and allowed to grow until the tumors had reached approximately 250 mm^3. The animals were given gemcitabine (75 mg/kg, once per week) for 5 weeks until tumors had regressed. The animals were randomized into two groups and given control antibody (black squares) or anti-FZD 18R5 (gray open circles). Antibodies were dosed at 10 mg/kg once per week.

PE13 breast tumor = PE13 breast tumor recurrence study; assay type: in vivo, Nod-Scid mice; conditions: taxol 15 mg/kg twice per week + 18R5 20 mg/kg once per week vs taxol + control antibody; taxol stopped at day 70
Procedure: PE13 breast tumor recurrence study with 18R5 mAb: PE13 breast tumor cells were injected into Nod-Scid mice and allowed to grow until the tumors had reached approximately 100 mm^3. The animals were randomized into two groups (n=10) and given taxol (15 mg/kg, twice per week)+Control antibody (black squares) or the same dose of taxol+Anti-FZD 18R5 (gray open circles). Antibodies were dosed at 20 mg/kg once per week. Taxol treatments were stopped at day 70 and the antibody treatments continued.

OMP-Pn4 tumors = experiment: Limiting dilution assay of cancer stem cell frequency in treated OMP-Pn4 tumors; assay type: in vivo, NOD/SCID mice; conditions: tumors after 41 days treatment; 30-810 cells re-injected, 75 days; L-Calc
Procedure: Control and treated tumors from the OMP-Pn4 xenograft study described above (Example 7) were harvested at the end of 41 days treatment. The tumors were processed and dissociated into single cells. Tumor cells were then incubated with biotinylated mouse antibodies (α-mouse CD45-biotin 1:200 dilution and rat α-mouse H2 Kd-biotin 1:100 dilution, BioLegend, San Diego, Calif.) on ice for 30 min followed by addition of streptavidin-labeled magnetic beads (Invitrogen, Carlsbad, Calif.) to remove mouse cells. The remaining human cells in the suspension were collected, counted and diluted to appropriate cell doses (30, 90, 270 and 810 cells), mixed in the mixture of 1:1 (v/v) FACS buffer and Matrigel and injected subcutaneously in NOD/SCID mice (10 mice per cell dose per treatment group). Each dot in FIG. 40 represents the tumor volume of an individual mouse. The percentage of mice with detectable tumors was determined in all groups injected with anti-FZD antibody treated tumor cells and compared to the percentage of mice with detectable tumors in the controls. For example, the number of mice injected with 810 control-treated tumor cells that have detectable tumors was determined and compared to the number of mice injected with 810 FZD-antibody treated tumor cells that have detectable tumors. […]

FZD8 [1] = biological target: T1, FZD8 (Homo sapiens, UniProt Q9H461, S109Q); experiment: Epitope mapping by FACS on FZD8 Fri domain variants on HEK293 cells; assay type: binding; conditions: amino acid 109S changed to 109Q
T1 construct: N-terminus of the Fri domain of FZD8 in turn fused to the transmembrane domain and intracellular domain of CD4 protein; expressed in transfected cells; host or cells: HEK293
T1 sequence (Q9H461 28-158 S109Q): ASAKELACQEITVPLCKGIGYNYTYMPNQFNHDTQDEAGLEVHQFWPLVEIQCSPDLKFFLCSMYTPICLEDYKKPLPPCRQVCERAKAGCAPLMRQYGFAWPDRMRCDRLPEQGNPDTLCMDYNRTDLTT

FZD8 [2] = biological target: T2, FZD8 (Homo sapiens, UniProt Q9H461, D83Q/P82S); experiment: as above; assay type: binding; conditions: amino acid residues 82-83 mutated from PD to SQ
T2 construct: N-terminus of the Fri domain of FZD8 in turn fused to the transmembrane domain and intracellular domain of CD4 protein; expressed in transfected cells; host or cells: HEK293
T2 sequence (Q9H461 28-158 P82S/D83Q): T1 sequence (Q9H461 28-158 S109Q) with P55S, D56Q, Q82S

Molecule	breast cancer stem cell frequency (PE13 breast tumors)	bulk tumor population expressing both ESA and CD44 at high levels (double positive) (OMP-C28 tumors) [%]	tumor recurrence after gemcitabine treatment (PN4 pancreatic tumor)	tumor regression and recurrence (PE13 breast tumor)	cancer stem cell frequency (OMP-Pn4 tumors)	binding to FZD8 variant (FZD8 [1])	binding to FZD8 variant (FZD8 [2])
B1	Reduction of breast cancer stem cell frequency	40	delay tumor recurrence	enhance the rate of tumor regression and to delay tumor recurrence	reduced cancer stem cell frequency		
B2						no appreciable effect	largely unaffected
